The text below walks through data of US20250325643A1 (Genmab, published 2025).

The target of test [1] is T1, recombinant His-tagged human FcγRIIb (Sino Biological, Cat #10259-H27H-B) (human, UniProt P31994 43-217).
T1 construct: Bought protein; not shown: His tag
T1 sequence (looked up): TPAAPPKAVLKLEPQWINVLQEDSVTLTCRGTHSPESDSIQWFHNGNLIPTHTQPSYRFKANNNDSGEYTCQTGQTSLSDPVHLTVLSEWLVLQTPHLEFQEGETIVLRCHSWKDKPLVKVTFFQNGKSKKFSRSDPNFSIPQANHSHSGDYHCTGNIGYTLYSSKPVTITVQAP
The experiment in a line: SPR (Biacore): His-tagged FcγRIIb captured on an anti-His chip, antibody injected.

For test [2], the target named is T2, recombinant His-tagged human FcγRIIa 167-His (Sino Biological, Cat #10374-H27H) (human, UniProt P12318 34-218).
T2 construct: Bought protein; also called FcγRIIa-H; FcγRIIa (167-His [H]); not shown: His tag
T2 sequence (looked up): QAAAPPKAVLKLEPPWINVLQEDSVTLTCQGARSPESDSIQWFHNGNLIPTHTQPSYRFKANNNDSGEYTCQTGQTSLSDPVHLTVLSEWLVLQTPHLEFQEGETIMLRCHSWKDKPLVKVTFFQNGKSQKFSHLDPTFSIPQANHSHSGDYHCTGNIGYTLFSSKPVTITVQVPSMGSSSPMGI
Kind of test: SPR (Biacore): His-tagged FcγRIIa-H captured on an anti-His chip, antibody injected. Background: Surface plasmon resonance follows binding to a sensor surface in real time, without labels.

For test [3], the target named is T3, recombinant His-tagged human FcγRIIa 167-Arg (Sino Biological, Cat #10374-H27H1-B) (human, UniProt P12318 34-218).
T3 construct: Bought protein; also called FcγRIIa-R; FcγRIIa (167-Arg [R]); not shown: His tag
T3 sequence (looked up): T2 sequence (looked up) with H134R
Kind of test: SPR (Biacore): His-tagged FcγRIIa-R captured on an anti-His chip, antibody injected.

Test [4] deals with T4, recombinant His-tagged human FcγRIIIa 176-Phe (Sino Biological, Cat #10389-H27H-B) (human, UniProt P08637 17-208).
T4 construct: Bought protein; also called FcγRIIIa-F; FcγRIIIa (176-Phe [F]); not shown: His tag
T4 sequence (P08637 17-208 limits assumed): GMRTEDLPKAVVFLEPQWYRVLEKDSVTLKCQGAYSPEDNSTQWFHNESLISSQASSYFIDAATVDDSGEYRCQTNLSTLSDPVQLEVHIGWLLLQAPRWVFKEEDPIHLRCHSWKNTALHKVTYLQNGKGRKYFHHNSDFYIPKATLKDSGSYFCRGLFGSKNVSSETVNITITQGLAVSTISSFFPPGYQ
The experiment in a line: SPR (Biacore): His-tagged FcγRIIIa-F captured on an anti-His chip, antibody injected.

In test [5] the target is T5, recombinant His-tagged human FcγRIIIa 176-Val (Sino Biological, Cat #10389-H27H1-B) (human, UniProt P08637 17-208).
T5 construct: Bought protein; also called FcγRIIIa-V; FcγRIIIa (176-Val [V]); not shown: His tag
T5 sequence (P08637 17-208 F176V limits assumed): as the sequence (P08637 17-208 limits assumed) above, with F160V counted along it
The experiment in a line: SPR (Biacore): His-tagged FcγRIIIa-V captured on an anti-His chip, antibody injected.

The target of test [6] is T6, human CD27 expressed on cells (T cells, transfected HEK293F cells, Daudi cells, NFκB-luc2/CD27 Jurkat … (human, UniProt P26842 20-240)).
T6 construct: also called TNFRSF7
T6 sequence: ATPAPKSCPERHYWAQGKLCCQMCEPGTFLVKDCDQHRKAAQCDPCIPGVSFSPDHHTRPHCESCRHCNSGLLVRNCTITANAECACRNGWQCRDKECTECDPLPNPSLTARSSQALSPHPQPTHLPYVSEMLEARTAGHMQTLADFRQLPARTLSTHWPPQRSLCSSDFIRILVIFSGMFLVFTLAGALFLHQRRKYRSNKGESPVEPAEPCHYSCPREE
Kind of test: flow cytometry on CD4+ T cells in human PBMC, FITC-conjugated goat anti-human IgG F(ab')2, median FITC. As for the experimental part:
(§1) Binding of IgG1-CD27-A-P329R-E345R to CD27 on human healthy donor T cells was characterized in more detail using flow cytometry. Anti-HIV gp120 antibody variant IgG1-b12-P329R-E345R was used as non-binding control antibody (ctrl). Human PBMCs were isolated from buffy coats obtained from human healthy donors. PBMCs (1×10⁵ cells/well) in FACS buffer were added to polystyrene 96-well round-bottom plates (Greiner bio-one, Cat #650101) and pelleted by centrifugation at 300×g for 3 min at 4° C. The cells were resuspended in 50 μL/well serial antibody dilutions in FACS buffer (range 0.0015 to 10 μg/mL in 3-fold dilution steps) and incubated for 30 min at 4° C. Cells were pelleted, washed twice with FACS buffer and incubated in 50 μL/well with FITC-conjugated secondary antibody (FITC AffiniPure F(ab′)₂ fragment goat anti-human IgG, F(ab′)₂ fragment specific, Jackson ImmunoResearch, Cat #109-096-097, diluted 1:100) for 30 min at 4° C. in the dark. […] The samples were measured by flow cytometry on an LSRFortessa (BD) flow cytometer and analyzed using FlowJo software. Binding curves were analyzed using non-linear regression (sigmoidal dose-response with variable slope) using GraphPad Prism 8 software.
In general terms: A flow cytometer gives signals particle by particle.

For test [7], the target named is T6, human CD27 expressed on cells (T cells, …). Kind of test: flow cytometry on CD8+ T cells in human PBMC, FITC-conjugated goat anti-human IgG F(ab')2, median FITC. The procedure:
as §1

Test [8] has as its target T7, recombinant His-tagged human FcγRIa (Sino Biological, Cat #10256-H08S-B) (human, UniProt P12314 16-288).
T7 construct: Bought protein; not shown: His tag
The experiment in a line: SPR (Biacore): His-tagged FcγRIa captured on an anti-His chip, antibody injected; resonance units against antibody concentration. The procedure: Binding of IgG1-CD27-A-P329R-E345R to human FcγR variants was analyzed using a Biacore surface plasmon resonance (SPR) system and compared to an anti-HIV gp120 antibody IgG1-b12 (ctrl). Biacore Series S Sensor Chips CM5 (Cytiva, Cat #29104988) were covalently coated with anti-His antibody using amine-coupling and His capture kits (Cytiva, Cat #BR100050 and Cat #29234602) according to the manufacturer's instructions. […] After three cycles of buffer, antibody samples were injected for 36 cycles to generate binding curves using antibody ranges of 0-3,000 nM for FcγRI and 0-10,000 nM for the other FcγRs. Each sample that was analyzed on an FcR-coated surface (Active Surface) was also analyzed on a parallel flow-cell without FcR (Reference Surface), which was used for background correction. Dissociation from the anti-His-coated surface was performed by regeneration of the surface using 10 mM Glycine-HCl pH 1.5 (Cytiva, Cat #BR100354). Sensograms were generated using Biacore Insight Evaluation software (Cytiva) and a four-parameter logistic (4PL) fit was applied to calculate relative binding of IgG1-CD27-A-P329R-E345R against the reference sample (ctrl).

In test [9] the target is T8, human C1q (from normal human serum) (human, UniProt P02745 23-245; P02746 28-253; P02747 29-245).
T8 construct: 20% normal human serum was the source of C1q
T8 sequence (P02745 23-245 limits assumed, chain 1 of 3): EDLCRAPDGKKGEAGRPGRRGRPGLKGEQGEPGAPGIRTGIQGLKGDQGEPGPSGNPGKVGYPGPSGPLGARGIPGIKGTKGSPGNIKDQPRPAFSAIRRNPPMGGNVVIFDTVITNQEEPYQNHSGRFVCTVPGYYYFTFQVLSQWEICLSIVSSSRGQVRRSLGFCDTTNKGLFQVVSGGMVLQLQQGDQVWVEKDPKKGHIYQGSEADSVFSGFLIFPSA
T8 sequence (P02746 28-253 limits assumed, chain 2 of 3): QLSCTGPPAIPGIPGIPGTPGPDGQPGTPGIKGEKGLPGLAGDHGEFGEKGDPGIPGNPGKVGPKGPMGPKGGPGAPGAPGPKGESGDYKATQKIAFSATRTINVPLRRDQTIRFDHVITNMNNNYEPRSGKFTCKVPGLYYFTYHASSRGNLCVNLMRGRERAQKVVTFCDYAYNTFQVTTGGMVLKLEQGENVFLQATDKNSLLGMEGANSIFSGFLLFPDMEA
T8 sequence (P02747 29-245 limits assumed, chain 3 of 3): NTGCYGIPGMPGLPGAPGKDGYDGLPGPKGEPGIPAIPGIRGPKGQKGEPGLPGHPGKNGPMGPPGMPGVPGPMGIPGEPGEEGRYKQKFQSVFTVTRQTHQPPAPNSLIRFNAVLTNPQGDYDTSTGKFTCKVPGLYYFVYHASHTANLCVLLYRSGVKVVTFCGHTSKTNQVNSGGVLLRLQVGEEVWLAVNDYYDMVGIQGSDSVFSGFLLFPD
Kind of test: flow cytometry: human T cells opsonised with the antibody, 20% normal human serum as source of C1q, FITC-labelled rabbit anti-human C1q.

Test [10] concerns the target T6, human CD27 expressed on cells (T cells, …). Kind of test: flow cytometry on T cells in human PBMC, PE-labelled goat anti-human IgG, median MFI PE.
For test [11], the target named is T9, cynomolgus monkey CD27 expressed on cells (cynomolgus monkey T cells, transfected HEK293F cells) (cynomolgus monkey, UniProt P26842 20-260 (human entry)).
T9 construct: also called cyno CD27
T9 chain: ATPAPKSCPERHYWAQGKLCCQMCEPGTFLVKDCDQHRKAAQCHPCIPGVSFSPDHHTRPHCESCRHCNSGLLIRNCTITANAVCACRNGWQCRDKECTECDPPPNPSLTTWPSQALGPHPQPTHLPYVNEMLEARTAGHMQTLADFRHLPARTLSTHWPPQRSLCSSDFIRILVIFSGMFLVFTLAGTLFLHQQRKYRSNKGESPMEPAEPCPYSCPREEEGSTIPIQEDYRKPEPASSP
The experiment in a line: flow cytometry on T cells in cynomolgus monkey PBMC, PE-labelled goat anti-human IgG, median MFI PE.

Positions count from the first letter of the chain named. Names and notes keep the numbering of the source.

T7 sequence (P12314 16-288 limits assumed, stated change not applied): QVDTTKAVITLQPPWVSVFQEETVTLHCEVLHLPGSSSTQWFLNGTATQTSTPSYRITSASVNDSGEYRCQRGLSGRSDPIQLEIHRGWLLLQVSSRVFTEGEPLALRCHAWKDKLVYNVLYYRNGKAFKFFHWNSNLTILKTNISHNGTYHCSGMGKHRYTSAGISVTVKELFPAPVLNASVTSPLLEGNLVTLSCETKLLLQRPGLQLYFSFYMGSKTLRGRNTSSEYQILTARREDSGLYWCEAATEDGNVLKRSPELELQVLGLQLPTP

B1: IgG1-CD27-A-P329R-E345R (antibody)
heavy: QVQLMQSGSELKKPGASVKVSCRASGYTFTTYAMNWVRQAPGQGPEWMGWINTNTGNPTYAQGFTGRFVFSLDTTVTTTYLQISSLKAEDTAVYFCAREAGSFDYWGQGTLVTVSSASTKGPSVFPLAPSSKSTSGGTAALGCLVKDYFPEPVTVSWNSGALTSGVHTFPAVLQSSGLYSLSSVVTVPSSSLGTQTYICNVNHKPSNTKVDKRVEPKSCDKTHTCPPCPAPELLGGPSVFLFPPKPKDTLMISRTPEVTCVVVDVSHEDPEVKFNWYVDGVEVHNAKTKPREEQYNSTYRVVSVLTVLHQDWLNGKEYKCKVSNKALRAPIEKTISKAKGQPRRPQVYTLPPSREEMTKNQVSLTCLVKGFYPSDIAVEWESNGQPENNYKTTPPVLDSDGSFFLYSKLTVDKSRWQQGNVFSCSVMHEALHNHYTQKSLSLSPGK
light: QSALTQPASVSGSPGQSITISCTGTSSDVYYYNYVSWYQQHPGRAPKLVIYDVSNRPSGVSNRFSGSKSGNTASLTISGLRAEDEADYYCSSYTVNRVWVFGGGTKLTVLGQPKAAPSVTLFPPSSEELQANKATLVCLISDFYPGAVTVAWKADSSPVKAGVETTTPSKQSNNKYAASSYLSLTPEQWKSHRSYSCQVTHEGSTVEKTVAPTECS
notes: also called IgG1-CD27-A-E345R-P329R
For B1, the binding result is “no binding (tested: 10,000 nM)” in test [1]; “no binding (tested: 10,000 nM)” in test [2]; “no binding (tested: 10,000 nM)” in [3]; “no binding (tested: 10,000 nM)” in test [4]; “no binding (tested: 10,000 nM)” in test [5]; “binds” in [8]. In [9], the binding result was “no binding (tested: 15 µg/mL)”. In addition, the “EC50 (read off the curve)” value in test [6] and in [7] was approximately 0.03 µg/mL each time.

B2: IgG1-b12-FEAR (antibody, V domains shown)
VH: QVQLVQSGAEVKKPGASVKVSCQASGYRFSNFVIHWVRQAPGQRFEWMGWINPYNGNKEFSAKFQDRVTFTADTSANTAYMELRSLRSADTAVYYCARVGPYSWDDSPQDNYYMDVWGKGTTVIVSS
VL: EIVLTQSPGTLSLSPGERATFSCRSSHSIRSRRVAWYQHKPGQAPRLVIHGVSNRASGISDRFSGSGSGTDFTLTITRVEPEDFALYYCQVYGASSYTFGQGTKLERK
notes: also called ctrl; anti-HIV-gp120 antibody IgG1-b12-FEAR
As for B2, the binding result in [10] and in [11] was “no binding (tested: 10 µg/mL)” each time.

One may read the EC50 (read off the curve) as the concentration needed to bring the measured effect to its halfway point.
